Assay results from PMC8421406, “C9orf72-derived arginine-rich poly-dipeptides impede phase modifiers” (Nature Communications, 2021).

T1: Kapβ2 (ΔLoop, residues 321–371 were replaced with GGSGGSGS linker) (UniProt Q92973-2 1-320; Q92973-2 372-890)
T1 construct: karyopherin-β2 (Kapβ2), the part before the loop, up to residue 320; linker that replaces residues 321–371; karyopherin-β2 (Kapβ2), the part after the loop, from residue 372; source: E. coli BL21(DE3), purified; not shown: GST, N-terminal, cleaved
T1 chain: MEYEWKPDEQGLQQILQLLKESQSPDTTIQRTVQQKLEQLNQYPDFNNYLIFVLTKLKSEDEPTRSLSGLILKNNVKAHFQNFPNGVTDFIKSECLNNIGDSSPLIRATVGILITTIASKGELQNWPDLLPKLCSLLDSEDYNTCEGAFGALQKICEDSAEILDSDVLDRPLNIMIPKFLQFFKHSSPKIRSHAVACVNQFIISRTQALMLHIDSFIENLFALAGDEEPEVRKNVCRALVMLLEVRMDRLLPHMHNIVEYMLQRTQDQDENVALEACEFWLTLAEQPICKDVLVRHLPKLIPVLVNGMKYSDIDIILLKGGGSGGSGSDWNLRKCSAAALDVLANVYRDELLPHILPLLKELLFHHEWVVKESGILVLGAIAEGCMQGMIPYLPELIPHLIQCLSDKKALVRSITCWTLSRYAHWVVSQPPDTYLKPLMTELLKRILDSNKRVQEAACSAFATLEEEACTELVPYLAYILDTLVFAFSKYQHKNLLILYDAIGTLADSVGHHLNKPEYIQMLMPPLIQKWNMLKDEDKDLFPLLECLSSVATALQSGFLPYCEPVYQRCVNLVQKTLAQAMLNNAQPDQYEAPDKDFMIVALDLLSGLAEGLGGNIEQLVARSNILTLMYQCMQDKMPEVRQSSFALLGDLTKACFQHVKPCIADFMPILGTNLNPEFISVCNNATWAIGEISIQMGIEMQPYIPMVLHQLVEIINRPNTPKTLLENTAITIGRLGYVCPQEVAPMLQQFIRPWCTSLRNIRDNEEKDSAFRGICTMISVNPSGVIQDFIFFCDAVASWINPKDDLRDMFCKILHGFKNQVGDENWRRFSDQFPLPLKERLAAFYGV

T2: karyopherin-β2 (Kapβ2) (UniProt Q92973 1-898, for NMR: [U-2H; Ile-δ1-13CH3; Leu, Val-13CH3/12CH3]-labeled)
T2 construct: karyopherin-β2 (Kapβ2), nuclear import receptor; Expressed as GST fusion from pGEX6P-1; also called isotopically labeled Kapβ2; source: E. coli BL21(DE3), purified (GSH Sepharose, HRV3C cleavage, anion exchange, gel filtration); not shown: GST, N-terminal, cleaved
T2 sequence (looked up): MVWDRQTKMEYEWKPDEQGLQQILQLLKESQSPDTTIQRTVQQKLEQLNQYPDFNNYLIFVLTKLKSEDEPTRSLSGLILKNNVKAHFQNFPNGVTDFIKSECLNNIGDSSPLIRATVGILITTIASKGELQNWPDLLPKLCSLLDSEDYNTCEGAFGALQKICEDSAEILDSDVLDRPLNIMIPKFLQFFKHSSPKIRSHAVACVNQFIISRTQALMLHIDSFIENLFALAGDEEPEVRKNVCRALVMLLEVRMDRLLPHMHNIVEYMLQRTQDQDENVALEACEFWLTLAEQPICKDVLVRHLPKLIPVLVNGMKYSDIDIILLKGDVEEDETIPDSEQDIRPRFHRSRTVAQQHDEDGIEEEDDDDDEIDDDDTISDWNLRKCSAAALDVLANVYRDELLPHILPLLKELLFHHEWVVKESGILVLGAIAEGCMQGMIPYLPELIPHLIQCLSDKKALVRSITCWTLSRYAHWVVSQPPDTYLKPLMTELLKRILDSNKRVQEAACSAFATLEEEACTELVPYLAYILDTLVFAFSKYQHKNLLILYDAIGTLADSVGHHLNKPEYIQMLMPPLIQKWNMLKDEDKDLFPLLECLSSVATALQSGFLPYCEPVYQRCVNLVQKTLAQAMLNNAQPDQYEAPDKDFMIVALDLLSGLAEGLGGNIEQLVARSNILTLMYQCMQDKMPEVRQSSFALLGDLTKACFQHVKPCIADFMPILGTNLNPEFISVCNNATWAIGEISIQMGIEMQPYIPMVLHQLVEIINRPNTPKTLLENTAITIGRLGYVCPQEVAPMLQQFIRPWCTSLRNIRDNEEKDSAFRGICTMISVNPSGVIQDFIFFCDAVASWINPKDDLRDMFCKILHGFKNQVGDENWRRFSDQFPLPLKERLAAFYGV

T3: mCh:FUS-LC (mCherry fusion LC-domain of FUS, residue 2–214), as hydrogel (UniProt P35637 2-214)
T3 construct: fused in sarcoma (FUS), LC-domain, residue 2–214; Polymerised in the hydrogel; plasmid from the Steven L. McKnight Laboratory; source: E. coli BL21(DE3), purified (Ni-NTA Agarose), prepared as hydrogel droplets; not shown: mCherry, N-terminal, kept
T3 sequence (looked up): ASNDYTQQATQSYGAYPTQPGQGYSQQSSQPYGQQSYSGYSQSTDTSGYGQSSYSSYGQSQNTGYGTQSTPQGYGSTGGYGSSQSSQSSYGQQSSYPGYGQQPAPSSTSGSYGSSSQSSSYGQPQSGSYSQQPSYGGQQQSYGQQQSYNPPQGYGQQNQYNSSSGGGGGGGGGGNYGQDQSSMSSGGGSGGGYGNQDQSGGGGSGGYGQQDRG


Assays:
Details in all cases: both partners purified
[1] = target: T1, Kapβ2 (ΔLoop, residues 321–371 were …); test: ITC; 200 μM MBP:PR18 titrated into 20 μM Kapβ2 (ΔLoop) in the cell; 25 °C; 20 mM HEPES pH 7.4, 150 mM NaCl, 10% glycerol, 2 mM β-mercaptoethanol; 19 injections of 2 μL
karyopherin-β2 (Kapβ2) = target: T2, karyopherin-β2 (Kapβ2); test: SEC-MALS; Superdex200 10/300 GL; 28 µM Kapβ2 injected in the absence and presence of 55 µM MBP:PR18; 20 mM HEPES pH 7.4, 150 mM NaCl, 2 mM MgCl2, 10% glycerol, 2 mM β-mercaptoethanol
[2] = target: T3, mCh:FUS-LC (mCherry fusion LC-domain of …); test: hydrogel binding assay; 1 µM purified GFP-fused protein pipetted onto hydrogel droplets of the mCherry-fused LC-domain, overnight, confocal microscopy; ± Kapβ2 (0.1, 0.3, 1.0 µM) ± PR20; 20 mM Tris-HCl pH 7.5, 150 mM NaCl, 20 mM β-mercaptoethanol, 0.1 mM PMSF, 0.5 mM EDTA

| Binder | Kd [1] | stoichiometry N (karyopherin-β2 (Kapβ2)) | binding result [2] |
| --- | --- | --- | --- |
| PRPRPRPRPRPRPRPRPRPRPRPRPRPRPRPRPRPR (proline:arginine poly-dipeptide from the C9orf72 repeat expansion; source: E. coli BL21(DE3), purified (amylose resin, cation exchange, gel filtration); not shown: MBP, N-terminal, kept) [MBP:PR18 (18 repeats of Pro-Arg)] | 81.3 nM | 1 | – |
| GFP:FUS-LC (green fluorescent protein fusion LC-domain of FUS, residue 2–214) (domain or fragment, UniProt P35637 2-214, looked up, fused in sarcoma (FUS), LC-domain, residue 2–214; Plasmid from the Steven L. McKnight Laboratory; source: E. coli BL21(DE3), purified (Ni-NTA Agarose); not shown: GFP, N-terminal, kept) ASNDYTQQATQSYGAYPTQPGQGYSQQSSQPYGQQSYSGYSQSTDTSGYGQSSYSSYGQSQNTGYGTQSTPQGYGSTGGYGSSQSSQSSYGQQSSYPGYGQQPAPSSTSGSYGSSSQSSSYGQPQSGSYSQQPSYGGQQQSYGQQQSYNPPQGYGQQNQYNSSSGGGGGGGGGGNYGQDQSSMSSGGGSGGGYGNQDQSGGGGSGGYGQQDRG | – | – | binds |
| GFP:FUS-LC:NLS (GFP:FUS-LC fusion FUS-NLS, 501–526) (domain or fragment, UniProt P35637 2-214, looked up, fused in sarcoma (FUS), LC-domain, residue 2–214; fused in sarcoma (FUS), NLS, residue 501–526; Built with the In-Fusion HD Cloning Kit; also called FUS-LC fusion NLS; source: E. coli BL21(DE3), purified (Ni-NTA Agarose); not shown: GFP, N-terminal, kept) ASNDYTQQATQSYGAYPTQPGQGYSQQSSQPYGQQSYSGYSQSTDTSGYGQSSYSSYGQSQNTGYGTQSTPQGYGSTGGYGSSQSSQSSYGQQSSYPGYGQQPAPSSTSGSYGSSSQSSSYGQPQSGSYSQQPSYGGQQQSYGQQQSYNPPQGYGQQNQYNSSSGGGGGGGGGGNYGQDQSSMSSGGGSGGGYGNQDQSGGGGSGGYGQQDRGGDRGGFGPGKMDSRGEHRQDRRERPY | – | – | binds |
